Target: thioredoxin (TRX), endogenous in bovine aortic endothelial cells (BAEC) (bovine) (UniProt O97680)
Assay: cell-based or functional assay

Chain of UniProt O97680 (O97680 2-105 limits assumed): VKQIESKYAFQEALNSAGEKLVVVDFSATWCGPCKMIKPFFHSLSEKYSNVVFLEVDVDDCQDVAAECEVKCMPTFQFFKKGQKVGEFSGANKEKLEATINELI

- TNF-mediated activation of JNK (phospho-specific immunoblot) in BAEC over-expressing TXNIP: 33%
- TNF-mediated activation of p38 (phospho-specific immunoblot) in BAEC over-expressing TXNIP: 23%
Substance: Thioredoxin interacting protein (TXNIP) over-expressed from pcDNA3.1-TXNIP in BAEC
